Data on three sequences can be found in the supplement of paper PMC6379048.

Holding throughout (assay): Kd (EC50 corrected by depletion factor)
For one data set, the target named is T1, CELF2 (UniProt O95319).
T1 sequence: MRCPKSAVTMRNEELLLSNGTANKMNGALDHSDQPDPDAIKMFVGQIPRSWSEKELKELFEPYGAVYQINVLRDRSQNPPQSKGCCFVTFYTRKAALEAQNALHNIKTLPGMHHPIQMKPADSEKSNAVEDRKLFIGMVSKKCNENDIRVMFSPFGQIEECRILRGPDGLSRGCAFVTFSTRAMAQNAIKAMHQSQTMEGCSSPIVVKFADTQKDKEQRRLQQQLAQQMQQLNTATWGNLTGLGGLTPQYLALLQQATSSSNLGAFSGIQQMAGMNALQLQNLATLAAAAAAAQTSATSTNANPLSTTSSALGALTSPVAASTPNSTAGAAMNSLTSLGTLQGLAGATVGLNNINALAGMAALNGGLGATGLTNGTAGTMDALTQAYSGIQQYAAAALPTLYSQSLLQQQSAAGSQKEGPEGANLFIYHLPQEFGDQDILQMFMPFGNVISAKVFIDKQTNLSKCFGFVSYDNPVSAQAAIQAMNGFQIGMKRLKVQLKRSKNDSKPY
As for the experimental part:
(§1)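 Competition-binding assay: HEK293-FT cell lysate (2.5 mg protein) pre-incubated 1 h at 4°C with free motif-containing RNA oligos (0 to 30 µM, 12 doses), then pulled down with the same 5'-amino-C6 RNA oligos immobilised on NHS-Sepharose beads (30 min, 4°C). Bound proteins were quantified by label-free LC-MS/MS and normalised to the water control. EC50 came from a four-parameter log-logistic fit; Kd = EC50 x depletion factor. Random/reversed control probes are dropped.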

Another data set has as its target PHAX (UniProt Q9H814). As for the experimental part: as §1
The next data set concerns the target T2, HNRNPUL1 (UniProt Q9BUJ2).
T2 sequence: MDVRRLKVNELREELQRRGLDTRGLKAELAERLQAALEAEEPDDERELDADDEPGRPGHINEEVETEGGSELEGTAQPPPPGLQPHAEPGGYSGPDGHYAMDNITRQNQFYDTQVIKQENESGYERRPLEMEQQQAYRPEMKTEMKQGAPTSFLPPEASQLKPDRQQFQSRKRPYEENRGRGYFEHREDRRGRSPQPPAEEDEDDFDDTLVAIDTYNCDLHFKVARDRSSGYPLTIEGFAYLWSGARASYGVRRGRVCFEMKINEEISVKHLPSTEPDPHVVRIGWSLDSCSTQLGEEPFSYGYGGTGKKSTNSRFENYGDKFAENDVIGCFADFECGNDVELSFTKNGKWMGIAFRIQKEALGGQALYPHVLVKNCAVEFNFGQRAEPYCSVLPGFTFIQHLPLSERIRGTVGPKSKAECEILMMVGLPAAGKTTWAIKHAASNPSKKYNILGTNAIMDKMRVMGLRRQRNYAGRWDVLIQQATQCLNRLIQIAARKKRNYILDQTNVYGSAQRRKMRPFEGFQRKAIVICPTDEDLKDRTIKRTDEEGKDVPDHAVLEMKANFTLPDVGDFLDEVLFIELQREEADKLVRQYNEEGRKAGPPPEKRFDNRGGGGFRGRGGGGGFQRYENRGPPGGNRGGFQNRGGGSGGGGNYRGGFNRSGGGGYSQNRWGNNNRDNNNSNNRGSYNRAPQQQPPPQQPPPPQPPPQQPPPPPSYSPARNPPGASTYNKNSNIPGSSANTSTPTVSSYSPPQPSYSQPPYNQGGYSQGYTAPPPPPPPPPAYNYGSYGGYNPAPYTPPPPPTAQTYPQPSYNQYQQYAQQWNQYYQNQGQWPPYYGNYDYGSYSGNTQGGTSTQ
As for the experimental part:
as §1

For a further data set, the target named is T3, NKRF (UniProt O15226).
T3 sequence: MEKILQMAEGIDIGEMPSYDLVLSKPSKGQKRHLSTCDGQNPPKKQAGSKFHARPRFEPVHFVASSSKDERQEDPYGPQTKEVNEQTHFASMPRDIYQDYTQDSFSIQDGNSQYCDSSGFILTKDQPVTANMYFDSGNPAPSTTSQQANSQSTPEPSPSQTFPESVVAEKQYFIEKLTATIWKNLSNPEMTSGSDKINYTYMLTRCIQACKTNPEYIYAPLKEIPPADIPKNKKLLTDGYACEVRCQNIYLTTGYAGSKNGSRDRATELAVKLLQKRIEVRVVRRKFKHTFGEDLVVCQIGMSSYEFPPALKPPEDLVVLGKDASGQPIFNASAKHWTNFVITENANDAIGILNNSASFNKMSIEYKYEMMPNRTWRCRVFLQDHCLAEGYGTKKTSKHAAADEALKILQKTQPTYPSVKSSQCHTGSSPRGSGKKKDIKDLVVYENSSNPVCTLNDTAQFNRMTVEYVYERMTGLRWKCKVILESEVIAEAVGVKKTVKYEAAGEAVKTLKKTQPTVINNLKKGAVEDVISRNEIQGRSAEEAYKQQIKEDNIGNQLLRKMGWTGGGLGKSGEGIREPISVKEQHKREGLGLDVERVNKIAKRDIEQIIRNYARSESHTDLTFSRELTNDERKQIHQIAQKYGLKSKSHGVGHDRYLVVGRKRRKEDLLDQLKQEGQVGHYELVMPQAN
As for the experimental part: as §1

The next data set concerns the target DHX9 (UniProt Q08211). As to the method: as §1

A word on the Kd: it is the concentration at which binding is half-saturated.

Chain of DHX9 (Q08211 whole entry): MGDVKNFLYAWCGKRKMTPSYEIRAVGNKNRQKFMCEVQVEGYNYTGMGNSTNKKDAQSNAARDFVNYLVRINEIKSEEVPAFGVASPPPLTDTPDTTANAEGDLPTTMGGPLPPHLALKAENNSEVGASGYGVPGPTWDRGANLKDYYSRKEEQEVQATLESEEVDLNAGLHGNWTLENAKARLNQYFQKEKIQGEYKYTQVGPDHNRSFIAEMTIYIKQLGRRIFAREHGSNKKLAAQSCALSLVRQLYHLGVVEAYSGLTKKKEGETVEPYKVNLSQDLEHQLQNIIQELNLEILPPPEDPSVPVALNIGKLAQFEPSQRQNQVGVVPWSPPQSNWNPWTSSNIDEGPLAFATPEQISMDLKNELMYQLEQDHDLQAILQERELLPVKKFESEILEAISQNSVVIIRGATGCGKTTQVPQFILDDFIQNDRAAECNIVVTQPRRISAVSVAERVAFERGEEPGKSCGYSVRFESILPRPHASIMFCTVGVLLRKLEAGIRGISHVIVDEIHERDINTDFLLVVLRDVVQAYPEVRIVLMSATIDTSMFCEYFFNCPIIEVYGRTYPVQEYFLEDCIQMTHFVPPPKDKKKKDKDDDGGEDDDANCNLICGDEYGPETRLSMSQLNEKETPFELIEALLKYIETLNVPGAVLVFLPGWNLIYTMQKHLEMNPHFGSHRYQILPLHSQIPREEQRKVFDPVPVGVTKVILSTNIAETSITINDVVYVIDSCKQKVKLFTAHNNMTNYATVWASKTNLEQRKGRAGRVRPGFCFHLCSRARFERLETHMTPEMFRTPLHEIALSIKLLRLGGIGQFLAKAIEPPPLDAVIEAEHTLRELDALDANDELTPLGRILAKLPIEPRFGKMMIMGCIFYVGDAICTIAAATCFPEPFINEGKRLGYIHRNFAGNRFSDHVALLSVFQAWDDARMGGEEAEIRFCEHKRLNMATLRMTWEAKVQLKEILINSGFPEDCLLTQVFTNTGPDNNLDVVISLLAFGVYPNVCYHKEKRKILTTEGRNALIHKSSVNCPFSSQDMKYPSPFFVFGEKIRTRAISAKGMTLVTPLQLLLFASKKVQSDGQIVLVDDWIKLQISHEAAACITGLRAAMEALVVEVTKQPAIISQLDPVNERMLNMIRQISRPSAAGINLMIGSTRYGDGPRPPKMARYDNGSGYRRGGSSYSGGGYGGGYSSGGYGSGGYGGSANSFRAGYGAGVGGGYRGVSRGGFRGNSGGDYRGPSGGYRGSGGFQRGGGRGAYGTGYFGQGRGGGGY
Chain of PHAX (Q9H814 whole entry): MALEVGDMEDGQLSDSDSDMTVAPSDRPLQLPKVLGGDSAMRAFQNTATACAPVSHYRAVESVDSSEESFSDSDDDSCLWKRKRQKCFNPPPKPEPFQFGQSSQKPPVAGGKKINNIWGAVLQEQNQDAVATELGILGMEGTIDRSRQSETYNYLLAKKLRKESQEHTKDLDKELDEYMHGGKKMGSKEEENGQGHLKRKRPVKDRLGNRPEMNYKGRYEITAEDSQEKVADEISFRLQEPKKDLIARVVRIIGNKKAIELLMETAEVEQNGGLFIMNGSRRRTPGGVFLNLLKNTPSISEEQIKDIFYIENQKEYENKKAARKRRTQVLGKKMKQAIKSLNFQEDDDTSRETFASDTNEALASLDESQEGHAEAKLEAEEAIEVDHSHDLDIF

In the case of AAUAAA, the dissociation constant (Kd) in the data set with CELF2 came to 114 nM; in the data set with PHAX it was 15500 nM; in the data set with HNRNPUL1, 308 nM; with NKRF, 222 nM; with DHX9, 1840 nM.

Turning to CUGUCCU, the dissociation constant (Kd) in the data set with CELF2 is 948 nM; with PHAX it was 533 nM; with HNRNPUL1, 35.7 nM; with NKRF, 298 nM; with DHX9, 155 nM.

UAUUUAU: the Kd with CELF2 was found to be 283 nM; with PHAX, 5070 nM; with HNRNPUL1, 427 nM; with NKRF it was 223 nM; with DHX9, 1230 nM.
